The values below are quoted from earlier work in article PMC9558312.

Common to all, as to test: NMR
The target of data set [1] is Glu35 (UniProt position 53, CAAKFESNFNT).
Data set [2] has as its target Asp18 (UniProt position 36, KRHGLDNYRGY).
The target of data set [3] is Asp101 (UniProt position 119, KKIVSDGNGMN).
Data set [4] deals with Glu7 (UniProt position 25, VFGRCELAAAM).
In data set [5] the target is Asp66 (UniProt position 84, RWWCNDGRTPG).
Data set [6] has as its target Asp48 (UniProt position 66, TNRNTDGSTDY).
For data set [7], the target named is Asp52 (UniProt position 70, TDGSTDYGILQ).
The target of data set [8] is Asp119 (UniProt position 137, RCKGTDVQAWI).
The target of data set [9] is Asp87 (UniProt position 105, ALLSSDITASV).
For data set [10], the target named is Glu17 (UniProt position 38, YKTCPEGKNLC).
The target in data set [11] is His4 (UniProt position 25, YTLKCHNTQLP).
Data set [12] has as its target Asp59 (UniProt position 80, VCCSTDKCN--).
The target of data set [13] is Asp42 (UniProt position 63, KRGCADNCPKN).

Take “Hen egg white lysozyme (HEWL, lysozyme C) (Gallus gallus)”: the pKa (commonly the negative logarithm of the acid dissociation constant) was 6.1 in data set [1]; 2.8 in data set [2]; 4.5 in data set [3]; 2.6 in [4]; 1.2 in data set [5]; 1.4 in data set [6]. The pKa is listed as 3.6 in data set [7], 3.5 in data set [8] and 2.2 in [9].
Turning to “Cardiotoxin V (cytotoxin 5, CTX A5) (Naja naja atra (Naja atra, Taiwan cobra))”, the pKa in data set [10] was 4; in data set [11], 5.5; in data set [12], below 2; in data set [13], 3.2.
